In paper PMC3961380, “Activation of 2′ 5′-Oligoadenylate Synthetase by Stem Loops at the 5′-End of the West Nile Virus Genome”:

T1: OAS1 p42 isoform (transcript variant 2), wild type (human), P00973-2
T1 sequence: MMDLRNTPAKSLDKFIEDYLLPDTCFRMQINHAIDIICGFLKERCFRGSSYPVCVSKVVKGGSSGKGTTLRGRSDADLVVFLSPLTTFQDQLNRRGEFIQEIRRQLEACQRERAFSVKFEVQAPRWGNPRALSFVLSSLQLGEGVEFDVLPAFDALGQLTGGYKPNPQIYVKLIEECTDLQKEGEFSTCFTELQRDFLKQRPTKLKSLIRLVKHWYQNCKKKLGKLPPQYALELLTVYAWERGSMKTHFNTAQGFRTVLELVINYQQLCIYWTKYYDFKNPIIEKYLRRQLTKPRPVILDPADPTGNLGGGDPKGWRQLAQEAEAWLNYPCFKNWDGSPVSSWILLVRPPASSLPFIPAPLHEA

T2: OAS1 p42 isoform (transcript variant 2), wild type (human, UniProt P00973-2 1-364)
T2 sequence: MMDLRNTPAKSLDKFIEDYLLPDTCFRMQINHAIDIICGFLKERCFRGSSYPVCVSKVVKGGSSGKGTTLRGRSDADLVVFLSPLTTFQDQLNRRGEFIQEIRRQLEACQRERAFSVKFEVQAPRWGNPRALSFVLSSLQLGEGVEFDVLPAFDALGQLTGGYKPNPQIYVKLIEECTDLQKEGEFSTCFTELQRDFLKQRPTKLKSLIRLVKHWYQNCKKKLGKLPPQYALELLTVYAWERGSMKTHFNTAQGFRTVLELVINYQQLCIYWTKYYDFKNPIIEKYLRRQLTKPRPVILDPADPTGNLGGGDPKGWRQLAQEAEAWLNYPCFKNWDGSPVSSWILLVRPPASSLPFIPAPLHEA

B1: WNV SLII/III (structured_RNA)
RNA: GCUGUUUCUUAGCACGAAGAUCUCGAUGUCUAAGAAACCAGGAGGGCCCGGCAAGAGCCGGGCUGUCAAUAUGCU

Tests used:
[1] = tested on: T1, OAS1 p42 isoform (transcript variant 2), wild type (human), P00973-2; assay: OAS1 activation kinetics (Kapp, PPi assay); settings: pH 7.5, 10 min at room temperature (~20 C)
OAS1 S162G (human) = assay: OAS1 activation kinetics (Kapp, PPi assay); settings: pH 7.5, 10 min at room temperature (~20 C)
[2] = target: T2, OAS1 p42 isoform (transcript variant …); assay: OAS1 activation kinetics (Kapp, PPi assay); 400 nM OAS1; […], pH 7.5, 10 min at room temperature (~20 C); […]; settings: protein: recombinant; tags: none after TEV cleavage of N-terminal GNSHT tag (GB1, NusA, Streptavidin, 6xHis); label: none (SYBR Gold stain); two stem loops
[3] = target: T2, OAS1 p42 isoform (transcript variant …); assay: OAS1 activation kinetics (Kapp NA); 400 nM OAS1; no detectable affinity; […], pH 7.5, 10 min at room temperature (~20 C); […]; settings: protein: recombinant; tags: none after TEV cleavage of N-terminal GNSHT tag (GB1, NusA, Streptavidin, 6xHis); label: none (SYBR Gold stain); stem loop

Row | Molecule | K half [1] | binding result [3] | further results
1 | WNV SLI | 5830 nM |  | 
2 | WNV SLI/II | 528 nM |  | 
3 | WNV SLI/II/III | 1450 nM |  | K half (OAS1 S162G (human)): 1490 nM
4 | B1 |  |  | apparent K (half saturation) [2]: 5.78 ± 0.452 µM
5 | AGGAGGGCCCGGCAAGAGCCGGGCUGUCAAUAUGCU (structured_RNA) [WNV SLIII] |  | no binding | 
6 | GCUGUUUCUUAGCACGAAGAUCUCGAUGUCUAAGAAACC (structured_RNA) [WNV SLII] |  | no binding | 
